According to patent publication US11028172:

Experiments:
[1] = molecular target: human TIGIT expressed on cells (human) (UniProt Q495A1); experiment: flow cytometry on human TIGIT overexpressing cells, Alexa Fluor 647 anti-human IgG; fitted top of a flat control curve, unit from the y axis
[2] = molecular target: human TIGIT-His protein (human) (UniProt Q495A1); experiment: ELISA, plate coated with human TIGIT-His, anti-human IgG-HRP, OD 450nm; unit taken from the axis Log[Conc.]/ng/ml
[3] = molecular target: biotin-labeled human TIGIT protein (human) (UniProt Q495A1); experiment: ELISA blocking assay: CD155-hFc coated, biotin-labeled human TIGIT, antibody titrated
Sequence of biotin-labeled human TIGIT protein (human) (Q495A1 22-141 limits assumed): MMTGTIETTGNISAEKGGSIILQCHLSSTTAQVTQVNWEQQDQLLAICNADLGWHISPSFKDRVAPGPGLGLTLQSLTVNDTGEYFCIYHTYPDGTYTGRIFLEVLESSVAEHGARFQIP

Sequence of human TIGIT expressed on cells (human) (Q495A1 22-244): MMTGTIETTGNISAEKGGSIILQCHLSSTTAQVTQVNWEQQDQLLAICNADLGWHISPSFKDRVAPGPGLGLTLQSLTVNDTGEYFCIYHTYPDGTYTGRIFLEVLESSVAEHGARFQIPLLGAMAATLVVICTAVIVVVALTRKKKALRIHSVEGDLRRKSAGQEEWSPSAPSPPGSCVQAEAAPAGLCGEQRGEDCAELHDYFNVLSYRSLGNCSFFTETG
Sequence of human TIGIT-His protein (human) (Q495A1 22-141 limits assumed): as the sequence (Q495A1 22-141 limits assumed) above

total human IgG (antibody)
Top [1]: 110 MFI

Tiragolumab (RG6058, Roche) (antibody)
EC50 [2]: 0.00659 µg/mL
IC50 [3]: 0.531 µg/mL
